Consider one protein from patent US20130017550.

Chain of GST-PKC-θ, Q04759 (Q04759 whole entry, looked up): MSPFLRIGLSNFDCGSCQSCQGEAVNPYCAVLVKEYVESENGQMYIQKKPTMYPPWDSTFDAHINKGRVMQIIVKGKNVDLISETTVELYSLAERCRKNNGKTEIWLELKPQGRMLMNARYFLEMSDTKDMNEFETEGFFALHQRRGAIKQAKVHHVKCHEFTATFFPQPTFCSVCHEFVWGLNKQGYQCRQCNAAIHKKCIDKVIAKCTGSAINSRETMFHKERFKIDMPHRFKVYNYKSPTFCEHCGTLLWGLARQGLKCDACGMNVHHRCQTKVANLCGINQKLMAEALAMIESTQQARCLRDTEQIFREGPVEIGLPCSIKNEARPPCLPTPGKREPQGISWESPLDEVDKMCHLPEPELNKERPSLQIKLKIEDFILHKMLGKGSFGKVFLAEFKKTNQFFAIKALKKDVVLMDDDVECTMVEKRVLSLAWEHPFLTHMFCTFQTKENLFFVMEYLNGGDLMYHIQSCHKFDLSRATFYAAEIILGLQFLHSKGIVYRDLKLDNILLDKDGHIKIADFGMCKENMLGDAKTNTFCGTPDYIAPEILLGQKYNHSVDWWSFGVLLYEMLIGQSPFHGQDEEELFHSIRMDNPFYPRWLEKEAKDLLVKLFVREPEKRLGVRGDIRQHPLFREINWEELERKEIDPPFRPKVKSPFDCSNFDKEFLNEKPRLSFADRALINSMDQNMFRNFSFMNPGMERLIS

B1: Flag-GLK (protein)
chain: MAQEDFELIQRIGSGTYGDVYKARNVNTGELAAIKVIKLEPGEDFAVVQQEIIMMKDCKHPNIVAYFGSYLRRDKLWICMEFCGGGSLQDIYHVTGPLSELQIAYVSRETLQGLYYLHSKGKMHRDIKGANILLTDNGHVKLADFGVSAQITATIAKRKSFIGTPYWMAPEVAAVERKGGYNQLCDLWAVGITAIELAELQPPMFDLHPMRALFLMTKSNFQPPKLKDKMKWSNSFHHFVKMALTKNPKKRPTAEKLLQHPFVTQHLTRSLAIELLDKVNNPDHSTYHDFDDDDPEPLVAVPHRIHSTSRNVREEKTRSEITFGQVKFDPPLRKETEPHHELPDSDGFLDSSEEIYYTARSNLDLQLEYGQGHQGGYFLGADKSLLKSVEEELHQRGHVAHLEDDEGDDDESKHSTLKAKIPPPLPPKPKSIFIPQEMHSTEDENQGTIKRCPMSGSPAKPSQVPPRPPPPRLPPHKPVALGNGMSSFQLNGERDGSLCQQQNEHRGTNLSRKEKKDVPKPISNGLPPTPKVHMGACFSKVFNGCPLKIHCASSWINPDTRDQYLIFGAEEGIYTLNLNELHETSMEQLFPRRCTWLYVMNNCLLSISGKASQLYSHNLPGLFDYARQMQKLPVAIPAHKLPDRILPRKFSVSAKIPETKWCQKCCVVRNPYTGHKYLCGALQTSIVLLEWVEPMQKFMLIKHIDFPIPCPLRMFEMLVVPEQEYPLVCVGVSRGRDFNQVVRFETVNPNSTSSWFTESDTPQTNVTHVTQLERDTILVCLDCCIKIVNLQGRLKSSRKLSSELTFDFQIESIVCLQDSVLAFWKHGMQGRSFRSNEVTQEISDSTRIFRLLGSDRVVVLESRPTDNPTANSNLYILAGHENSY
In the case of B1, the “PKC-θ-T538 phosphorylation in in vitro kinase assays using purified proteins (immunoblot)” value in the data set with GST-PKC-θ, Q04759 is on record as “PKC-θ-T538 was directly phosphorylated by GLK”. Further, the “PKC-θ phosphorylation in in vitro kinase assays (immunoblot)” value with Myc-PKC-θ is reported as “GLK phosphorylated PKC-θ at T538, but not at S676 or S695”.
